Substrate: Nc1ncnc2c1ncn2[C@@H]1O[C@H](COP(=O)(O)OP(=O)(O)OP(=O)(O)O)[C@@H](O)[C@H]1O
Assay: malachite green ATP hydrolysis assay, Michaelis-Menten Km
Format: biochemical, Homo sapiens
Conditions: Mg2+ N-terminal ATPase site

B1: Type IIα DNA topoisomerase (TopoIIα) (Homo sapiens) (protein)
chain: MEVSPLQPVNENMQVNKIKKNEDAKKRLSVERIYQKKTQLEHILLRPDTYIGSVELVTQQMWVYDEDVGINYREVTFVPGLYKIFDEILVNAADNKQRDPKMSCIRVTIDPENNLISIWNNGKGIPVVEHKVEKMYVPALIFGQLLTSSNYDDDEKKVTGGRNGYGAKLCNIFSTKFTVETASREYKKMFKQTWMDNMGRAGEMELKPFNGEDYTCITFQPDLSKFKMQSLDKDIVALMVRRAYDIAGSTKDVKVFLNGNKLPVKGFRSYVDMYLKDKLDETGNSLKVIHEQVNHRWEVCLTMSEKGFQQISFVNSIATSKGGRHVDYVADQIVTKLVDVVKKKNKGGVAVKAHQVKNHMWIFVNALIENPTFDSQTKENMTLQPKSFGSTCQLSEKFIKAAIGCGIVESILNWVKFKAQVQLNKKCSAVKHNRIKGIPKLDDANDAGGRNSTECTLILTEGDSAKTLAVSGLGVVGRDKYGVFPLRGKILNVREASHKQIMENAEINNIIKIVGLQYKKNYEDEDSLKTLRYGKIMIMTDQDQDGSHIKGLLINFIHHNWPSLLRHRFLEEFITPIVKVSKNKQEMAFYSLPEFEEWKSSTPNHKKWKVKYYKGLGTSTSKEAKEYFADMKRHRIQFKYSGPEDDAAISLAFSKKQIDDRKEWLTNFMEDRRQRKLLGLPEDYLYGQTTTYLTYNDFINKELILFSNSDNERSIPSMVDGLKPGQRKVLFTCFKRNDKREVKVAQLAGSVAEMSSYHHGEMSLMMTIINLAQNFVGSNNLNLLQPIGQFGTRLHGGKDSASPRYIFTMLSSLARLLFPPKDDHTLKFLYDDNQRVEPEWYIPIIPMVLINGAEGIGTGWSCKIPNFDVREIVNNIRRLMDGEEPLPMLPSYKNFKGTIEELAPNQYVISGEVAILNSTTIEISELPVRTWTQTYKEQVLEPMLNGTEKTPPLITDYREYHTDTTVKFVVKMTEEKLAEAERVGLHKVFKLQTSLTCNSMVLFDHVGCLKKYDTVLDILRDFFELRLKYYGLRKEWLLGMLGAESAKLNNQARFILEKIDGKIIIENKPKKELIKVLIQRGYDSDPVKAWKEAQQKVPDEEENEESDNEKETEKSDSVTDSGPTFNYLLDMPLWYLTKEKKDELCRLRNEKEQELDTLKRKSPSDLWKEDLATFIEELEAVEAKEKQDEQVGLPGKGGKAKGKKTQMAEVLPSPRGQRVIPRITIEMKAEAEKKNKKKIKNENTEGSPQEDGVELEGLKQRLEKKQKREPGTKTKKQTTLAFKPIKKGKKRNPWSDSESDRSSDESNFDVPPRETEPRRAATKTKFTMDLDSDEDFSDFDEKTDDEDFVPSDASPPKTKTSPKLSNKELKPQKSVVSDLEADDVKGSVPLSSSPPATHFPDETEITNPVPKKNVTVKKTAAKSQSSTSTTGAKKRAAPKGTKRDPALNSGVSQKPDPAKTKNRRKRKPSTSDDSDSNFEKIVSKAVTSKKSKGESDDFHMDFDSAVAPRAKSVRAKKPIKYLEESDEDDLF
notes: recombinant human TopoIIα
- Km: 390 ± 50 µM

— PMC3229241, “Neoamphimedine Circumvents Metnase-Enhanced DNA Topoisomerase IIα Activity Through ATP-Competitive Inhibition” (2011)
